We go through three molecules from US20130216476A1 (LFB BIOTECHNOLOGIES, priority 2010, published 2013).

One experiment concerns ARH-77 tumour cells. The experiment can be described thus: Survival of SCID mice bearing ARH-77 tumour cells, anti-CD71 antibody with or without Velcade, section 3.2 (FIG. 3). The experiment is classed as in vivo. Here is the method: The injection was carried out between 24 to 72 hours after whole-body exposure of the mice to gamma radiation (1.8 Gy, ^60Co, INRA, Dijon, France).
The day of injection of tumour cells is considered as day 0 (D0). […] The treatment with Velcade® commences on day 4 and therefore takes place on days D4, D7, D11, D14, D18, D25, D28 and D32.
The 40 mice are separated into 5 groups.
The injection volume of Velcade® (10 ml/kg) is adjusted to the […] of the individual animals.
The mice surviving the experiment were sacrificed after 144 days following the injection of tumour cells. An autopsy was carried out on all the mice found dead or sacrificed during the experiment due to the presence of one of the pathological signs specified in the above section.
Table 5 below compares the average survival of the mice in the 5 groups which died or were sacrificed before the end of the experiment due to the presence of the pathological signs specified above.

The target of experiment [1] is CD71 antigen (transferrin receptor) on the surface of ARH-77 myeloma cells (UniProt P02786). The experiment can be described thus: flow cytometry on ARH-77 cells, control antibody at 10 µg/ml, anti-mouse IgG-PE. In general terms: In flow cytometry, cells or beads pass a laser one at a time.
The target is the same in experiment [2]. The experiment can be described thus: QIFIKIT indirect immunofluorescence, flow cytometry on ARH-77 cells, control antibody at 5 µg/ml, anti-mouse IgG-FITC.
The target is the same in experiment [3]. Nature of the experiment: QIFIKIT indirect immunofluorescence, flow cytometry on ARH-77 cells, control antibody at 5 µg/ml; BAE is background non-specific binding capacity.

UniProt P02786, sequence (P02786 whole entry): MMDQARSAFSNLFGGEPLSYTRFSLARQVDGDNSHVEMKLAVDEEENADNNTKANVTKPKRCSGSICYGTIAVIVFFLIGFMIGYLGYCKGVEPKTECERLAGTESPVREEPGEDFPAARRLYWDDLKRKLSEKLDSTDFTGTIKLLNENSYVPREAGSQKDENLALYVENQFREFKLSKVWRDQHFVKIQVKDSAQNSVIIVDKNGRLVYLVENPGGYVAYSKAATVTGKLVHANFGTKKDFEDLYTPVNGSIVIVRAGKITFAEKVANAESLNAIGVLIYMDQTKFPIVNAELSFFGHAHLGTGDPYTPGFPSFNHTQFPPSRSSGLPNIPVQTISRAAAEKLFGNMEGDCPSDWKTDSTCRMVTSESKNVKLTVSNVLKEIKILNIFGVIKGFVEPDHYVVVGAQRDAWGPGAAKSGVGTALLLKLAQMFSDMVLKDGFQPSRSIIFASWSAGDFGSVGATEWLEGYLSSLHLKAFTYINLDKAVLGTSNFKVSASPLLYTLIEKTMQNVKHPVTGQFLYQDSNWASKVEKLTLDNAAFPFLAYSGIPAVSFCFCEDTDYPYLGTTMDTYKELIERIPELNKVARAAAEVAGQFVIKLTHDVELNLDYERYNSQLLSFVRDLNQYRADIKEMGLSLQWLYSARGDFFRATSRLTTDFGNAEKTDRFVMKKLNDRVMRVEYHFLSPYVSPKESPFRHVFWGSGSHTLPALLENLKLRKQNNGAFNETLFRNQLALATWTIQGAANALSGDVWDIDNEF

Take `CC(C)C[C@H](NC(=O)[C@H](Cc1ccccc1)NC(=O)c1cnccn1)B(O)O` [Velcade®, bortezomib]: the “The number of mice that died before the end of the experiment” value in the experiment with ARH-77 tumour cells (8 mice per group, end at day 144, doses as in Table 4) is given as 8. Also, the “day of death or of sacrifice due to pathological signs after injection of ARH-77 cells” value in the experiment with ARH-77 tumour cells (8 mice per group, antibodies 1.2 mg/mouse/inj twice weekly for 6 weeks, Velcade 0.5 mg/kg/inj twice weekly for 4 weeks) was 27 day. In the experiment on ARH-77 tumour cells (doses as in Table 4), this molecule displayed a The survival median of 29.5. Besides, the The survival average in the experiment with ARH-77 tumour cells (only mice that died or were sacrificed before the end of the experiment, doses as in Table 4) is 28.4 days.
For negative control antibody IgG1 (MAT002), in experiment [1], the CD71+ % was 3.7%, the CD71- % was 96.3% and the MFI amounted to 4.9.
As for “irrelevant antibody (anti-mouse IgG1) used as negative control”, the MFI in experiment [2] turned out to be 5.2. For the same molecule, the BAE in experiment [3] turned out to be 2290.
